Experimental data taken from article PMC2734165, “The Immune System Strikes Back: Cellular Immune Responses against Indoleamine 2,3-dioxygenase” (PLoS ONE, 2009).

Key:
[1] = test system: established murine cancers; details: ref [17]; cited from earlier work
Description: The state of lymphopenia following high-dose chemotherapy appears to provide a window of enhanced responsiveness to immunotherapy. Additionally, certain chemotherapeutic drugs may assist in breaking immune tolerance by preferentially inhibition of Tregs, [47]. Nonetheless, chemotherapy alone is never sufficient to break tolerance to tumors probably because the original tolerogenic mechanisms rapidly restore tolerance following each cycle of chemotherapy. In principle, therefore, chemotherapy might provide an environment in which IDO-based immunotherapy could have a synergistic ...

[2] = test system: autologous CD14^+ monocytes, CD3^+ T cells and CD19^+ B cells; assay: 51Cr-release assay, autologous monocytes, T cells and B cells; format: cell-based; details: CD19^+ B cells after IFN-γ treatment
Description: Target cells were T2-cells, in vitro generated autologous immature DC (iDC) and matured DC (mDC), in vitro generated allogeneic HLA-A2^+ iDC and mDC, autologous ex vivo isolated monocytes, T cells and B cells (isolated using CD14^+, CD3^+ or CD19^+ microbeads (MACS)), the natural killer target cell line K562, ex vivo enriched HLA-A2^+ AML-blasts (B and T cells were depleted from the bone marrow of AML patients using CD19^+ and CD3^+ microbeads (MACS)), the breast cancer cell lines CAMA-1 and MDA-MB-231, as well as the colon cancer cell lines HCT-116 and SW480 (all available at the American Type Culture Collection (ATCC)), and FM55M [27]. Lysis were blocked using the HLA specific mAb W6/32 (2 µg/100 µl) [28]. In some assays, target cells were treated with 100 U/ml IFN-γ for 2 days.
Next, we tested the ability of RBS35 to lyse autologous monoctyes, T cells and B cells. For this purpose, we isolated CD14^+ monocytes, CD3^+ T cells and CD19^+ B cells directly ex vivo from IDO^+ PBMC. The isolated cells were subsequently used as target cells in a ^51Cr-release assay.
All assays were performed in different E∶T ratios. […] ( c ), Lysis of autologous CD14^+ monocytes, CD3^+ T cells and CD19^+ B cells isolated directly ex vivo from IDO^+ PBMC, and lysis of autologous CD14^+ monocytes, CD3^+ T cells and CD19^+ B cells after IFN-γ treatment. […]

[3] = test system: breast cancer cell line CAMA-1; assay: 51Cr-release assay, CAMA-1; format: cell-based; details: IFN-γ 100 U/ml for 2 days
Description: (§1) Conventional ^51Cr-release assays for CTL-mediated cytotoxicity was carried out as described elsewhere. Target cells were T2-cells, in vitro generated autologous immature DC (iDC) and matured DC (mDC), in vitro generated allogeneic HLA-A2^+ iDC and mDC, autologous ex vivo isolated monocytes, T cells and B cells (isolated using CD14^+, CD3^+ or CD19^+ microbeads (MACS)), the natural killer target cell line K562, ex vivo enriched HLA-A2^+ AML-blasts (B and T cells were depleted from the bone marrow of AML patients using CD19^+ and CD3^+ microbeads (MACS)), the breast cancer cell lines CAMA-1 and MDA-MB-231, as well as the colon cancer cell lines HCT-116 and SW480 (all available at the American Type Culture Collection (ATCC)), and FM55M [27]. Lysis were blocked using the HLA specific mAb W6/32 (2 µg/100 µl). In some assays, target cells were treated with 100 U/ml IFN-γ for 2 days.
(§2) Figure 5 Functional capacity of IDO5-specific T cells to kill cancer cell lines treated with IFN-γ for up-regulation of IDO, or treated with IDO ShRNA for down-regulation of IDO. […] Intracellular IDO expression was given by a one-tailed two sampled t-test comparing MFIIDO (dark histograms) and MFIIsotype control (light histograms), where MFI is the Mean Fluorescence Intensity. […]

[4] = test system: HLA-A2 on CAMA-1 and MDA-MB-231; assay: HLA-A2 surface staining, breast cancer cell lines; format: cell-based
Description: Cancer cells were examined for HLA-A2 expression using flow cytometry. Cells were stained with a fluorochrome-coupled HLA-A2 mAb (BD Bioscience). For comparison, cells were stained with an isotype matched control. The samples were analyzed on BD FACS Aria, using DIVA software (BD Biosciences). Assuming normality, HLA-A2 expression was given by a one-tailed two sampled t-test comparing MFIHLA-A2 and MFIIsotype control, where MFI is the Mean Fluorescence Intensity. For p-values <0.05 (significance level) cells were defined HLA-A2^+. The fold of expression was defined as MFIHLA-A2/MFIIsotype control.
(§3) Statistical analysis was performed on data on intracellular IDO staining. Assuming normality, intracellular IDO expression was given by a one-tailed two sampled t-test comparing MFIIDO and MFIIsotype control, where MFI is the Mean Fluorescence Intensity. For p-values <0.05 (significance level) cells were defined IDO^+. […] HLA-A2 expression was determined using the same approach.
as §2

[5] = test system: IDO in CAMA-1 and MDA-MB-231; assay: Intracellular IDO staining, breast cancer cell lines; format: cell-based
Description: PBMC, DC, and cancer cells were examined for intracellular IDO expression using flow cytometry. After fixation and permeabilization (Cytofix/Cytoperm, BD), cells were stained with anti-IDO antibody (Millipore Corporation). For comparison, cells were stained with an isotype matched control (Millipore Corporation). After incubation, cells were washed twice with Perm/Washbuffer (BD) before staining with a FITC-labeled secondary antibody (DAKO). The samples were analyzed on BD FACS Aria, using DIVA software (BD Biosciences). Assuming normality, intracellular IDO expression was given by a one-tailed two sampled t-test comparing MFIIDO and MFIIsotype control, where MFI is the Mean Fluorescence Intensity. […]
as §3, with “Intensity.” for “Intensity. For p-values <0.05 (significance level) cells were defined IDO^+.”
as §2

[6] = test system: breast cancer cell line MDA-MB-231; assay: 51Cr-release assay, MDA-MB-231; format: cell-based; details: IFN-γ 100 U/ml for 2 days
Description: as §1, §2

[7] = CAMA-1 and MDA-MB-231, IFN-γ 100 U/ml for 2 days

| Molecule | Synergy with chemotherapy drugs [1] | Effect of IFN-γ on killing of autologous immune cells by RBS35 [2] | Effect on killing of CAMA-1 by RBS35 [3] | Fold of HLA-A2 expression (printed as MFIIDO/MFIHLA-A2) ([4]; CAMA-1 + IFN-γ treatment, p = 0.002, before treatment 43.7 (p = 0.004), representative of 3 experiments) | HLA-A2 expression after treatment [4, 7] | Fold of IDO expression, MFIIDO/MFIIsotype control ([5]; CAMA-1 + IFN-γ treatment, p = 0.004, before treatment 2.3 (p = 0.020), representative of 3 experiments) | IDO expression after treatment [5, 7] | Effect on killing of MDA-MB-231 by RBS35 [6] |
| --- | --- | --- | --- | --- | --- | --- | --- | --- |
| Cn1cc(C[C@H](N)C(=O)O)c2ccccc21 [1-Methyl-Tryptophan] | work synergistically with different chemotherapy drugs in established murine cancers |  |  |  |  |  |  |  |
| IFN-γ: IFN-γ, 100 U/ml for 2 days (protein, UniProt P01579 24-161, looked up) Interferon gamma: QDPYVKEAENLKKYFNAGHSDVADNGTLFLGILKNWKEESDRKIMQSQIVSFYFKLFKNFKDDQSIQKSVETIKEDMNVKFFNSNKKKRDDFEKLTNYSVTDLNVQRKAIHELIQVMAELSPAAKTGKRKRSQMLFRG |  | introduced killing of the CD14^+ monocytes, but not of the T and B cells | increased the killing by RBS35 of CAMA-1 | 141.2 | increased the expression of IDO and HLA-A2 in both cell lines | 3.5 | increased the expression of IDO and HLA-A2 in both cell lines | introduced killing of the MDA-MB-231 cells |
